We go through 3 molecules from patent US20190062420A1 (Janssen / Centocor, published 2019).

Like-named read-outs stand apart in the source and are kept apart here.

Test [1] addresses T1, human FcγRIIB (NM_004001) expressed on cells (human, UniProt P31994 43-310).
T1 construct: Transiently expressed on Expi293F cells; also called Expi293F FcγRIIB; HEK293F cells expressing FcγRIIB
T1 sequence: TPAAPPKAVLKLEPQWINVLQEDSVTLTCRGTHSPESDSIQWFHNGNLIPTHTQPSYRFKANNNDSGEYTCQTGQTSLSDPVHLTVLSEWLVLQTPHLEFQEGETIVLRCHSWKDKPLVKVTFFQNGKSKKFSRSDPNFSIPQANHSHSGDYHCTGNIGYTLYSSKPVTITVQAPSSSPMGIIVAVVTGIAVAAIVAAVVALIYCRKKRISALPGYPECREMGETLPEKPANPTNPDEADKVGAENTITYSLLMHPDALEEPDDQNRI
The test can be described thus: flow cytometry; Expi293F cells transfected with FcγRIIB.

Test [2] addresses T2, human FcγRIIA (NM_021642) expressed on cells (human, UniProt P12318 36-317).
T2 sequence: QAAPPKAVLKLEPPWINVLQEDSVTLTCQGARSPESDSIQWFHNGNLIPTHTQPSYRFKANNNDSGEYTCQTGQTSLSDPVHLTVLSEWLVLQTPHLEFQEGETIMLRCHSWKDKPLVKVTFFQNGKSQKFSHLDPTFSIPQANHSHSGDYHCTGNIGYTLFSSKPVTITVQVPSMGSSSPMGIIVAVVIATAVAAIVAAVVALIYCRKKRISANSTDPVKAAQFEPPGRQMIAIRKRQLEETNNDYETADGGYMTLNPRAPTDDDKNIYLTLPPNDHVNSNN
The test can be described thus: cell-based or functional assay.

Test [3] concerns the target T1, human FcγRIIB (NM_004001) expressed on …. The test can be described thus: cell-based or functional assay.
Test [4] shares this target. The test is described as follows: flow cytometry; Raji cells (express predominantly FcγRIIB). Summed up: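 Raji B cells, predominantly FcγRIIB-expressing, BSA-blocked, then incubated with mAbtyrin titrations 1.5 h at 4° C. Bound antibody detected with PE-labeled anti-human IgG F(ab′) 45 min at 4° C. Geometric mean fluorescence from ≥10,000 DRAQ7-excluded live cells; EC₅₀ by nonlinear regression of log concentration.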

The target of test [5] is T2, human FcγRIIA (NM_021642) expressed on …. The test can be described thus: flow cytometry; Expi293F cells transfected with FcγRIIA. On the procedure:
Plasmids expressing cDNAs encoding human FcγRI (NM_000566) (SEQ ID NO: 44), FcγRIIA (NM_021642) (SEQ ID NO: 2), FcγRIIB (NM_004001) (SEQ ID NO: 3), and FcγRIIIA (NM_000569) (SEQ ID NO: 45) (Origene) were transiently transfected into Expi293F cells by ExpiFectamine293 transfection kit (Life Technologies). Flow cytometry assays were performed 48 h after transfection.
2×10⁵ cells per well were seeded in 96-well plate and blocked in BSA Stain Buffer (BD Biosciences, San Jose, USA) for 30 min at 4° C. Cells were incubated with test mAbtyrin on ice for 1.5 h at 4° C. After being washed twice with BSA stain buffer, the cells were incubated with R-PE labeled anti-human or anti-mouse IgG secondary antibody (Jackson Immunoresearch Laboratories) for 45 min at 4° C. The cells were washed twice in stain buffer and then resuspended in 150 μL of Stain Buffer containing 1:200 diluted DRAQ7 live/dead stain (Cell Signaling Technology, Danvers, USA). PE and DRAQ7 signals of the stained cells were detected by Miltenyi MACSQuant flow cytometer (Miltenyi Biotec, Auburn, USA) using B2 and B4 channel respectively. Live cells were gated on DRAQ7 exclusion and the geometric mean fluorescence signals were determined for at least 10,000 live events collected. FlowJo software (Tree Star) was used for analysis. Data was plotted as the logarithm of antibody concentration versus mean fluorescence signals. Nonlinear regression analysis was performed by GraphPad Prism 6 (GraphPad Software, Inc.) and EC₅₀ values were calculated.

Test [6] shares this target. The description is as above. The source holds these as a separate data set.
Test [7] deals with T3, FcγRIIB protein (human, UniProt P31994 43-217, biotinylated (SureLINK Biotin Kit) in the ELISA of Example 1).
T3 construct: Soluble/recombinant antigen used in ELISA; also called bt-FcγRIIB; recombinant FcγRIIB protein
T3 sequence: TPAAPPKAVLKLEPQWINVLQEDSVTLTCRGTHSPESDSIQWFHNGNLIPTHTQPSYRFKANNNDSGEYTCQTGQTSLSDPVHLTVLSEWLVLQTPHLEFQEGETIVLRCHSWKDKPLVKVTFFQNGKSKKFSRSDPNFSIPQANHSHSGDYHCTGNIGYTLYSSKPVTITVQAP
The test is described as follows: ELISA; FcγRIIB protein coated on plate, anti-human IgG-HRP detection. On the procedure: Effect of the mAbtyrins on T cell activation was evaluated. Briefly, recombinant FcγRIIB or FcγRIIA protein was coated on the plate to provide the crosslinking activity. For T cell activation assay, 100 μL of 30 ng/mL anti-CD3 antibody (OKT3) and 1 μg/mL FcγRIIB or FcγRIIA protein in DPBS were coated in U-bottomed 96-well tissue culture plate overnight. CD4 positive T cells were isolated from PBMC by negative selection. OX40 expression was induced by culturing the isolated T cells in the presence of 1 μg/mL PHA overnight. On the assay day, the coating solution in the plate were aspirated and 150 μL RPMI media was added to block the plate. The cultured T cells were washed three times by RPMI culture media and between 25,000 to 50,000 CD4 positive T cells were seeded in each well in the assay plate. Test mAbtyrins were added to the cells and the plate was incubated for 3 days. T cell activation was assessed by the induction of IFNγ or TNFα production, which was quantitated by human IFNγ or TNFα ELISA detection kit (Biolegend). Prior to T cell activation assay, the binding affinity of mAbtyrins to immobilized FcγRIIB or FcγRIIA protein were evaluated by an ELISA assay. […] The binding of mAbtyrins to immobilized FcγRIIB or FcγRIIA protein were detected by HRP-conjugated anti-Human IgG(γ) secondary antibody and quantitated by ELISA assay using TMB substrate.

B1: OX40SF2IgG2sigma_R2BS29_HC-C (bispecific antibody)
heavy: QVQLVQSGAEVKKPGSSVKVSCKASGYTFKDYTMHWVRQAPGQGLEWIGGIYPNNGGSTYNQNFKDRVTLTADKSTSTAYMELSSLRSEDTAVYYCARMGYHGPHLDFDVWGQGTTVTVSSASTKGPSVFPLAPCSRSTSESTAALGCLVKDYFPEPVTVSWNSGALTSGVHTFPAVLQSSGLYSLSSVVTVPSSNFGTQTYTCNVDHKPSNTKVDKTVERKCCVECPPCPAPPAAASSVFLFPPKPKDTLMISRTPEVTCVVVDVSAEDPEVQFNWYVDGVEVHNAKTKPREEQFNSTFRVVSVLTVLHQDWLNGKEYKCKVSNKGLPSSIEKTISKTKGQPREPQVYTLPPSREEMTKNQVSLTCLVKGFYPSDIAVEWESNGQPENNYKTTPPMLDSDGSFFLYSKLTVDKSRWQQGNVFSCSVMHEALHNHYTQKSLSLSPGKGGGGGSGGGGSGGGGSGGGGSLPAPKNLVVSRVTEDSARLSWTAPDAAFDSFPIYYWEYRVGGEAIVLTVPGSERSYDLTGLKPGTEYFVYINGVKGGEESRPLSAIFTT
light: DIQMTQSPSSLSASVGDRVTITCKASQDVGAAVAWYQQKPGKAPKLLIYWASTRHTGVPSRFSGSGSGTDFTLTISSLQPEDFATYYCQQYINYPLTFGGGTKVEIKRTVAAPSVFIFPPSDEQLKSGTASVVCLLNNFYPREAKVQWKVDNALQSGNSQESVTEQDSKDSTYSLSSTLTLSKADYEKHKVYACEVTHQGLSSPVTKSFNRGEC
notes: mAbtyrin: anti-OX40 antibody OX40SF2, effector silent IgG2sigma, with linker and R2BS29 FN3 domain at the C-terminus of the heavy chain; also called mAbtyrin
As for B1, the EC50 in test [1] was determined as 0.512 mg/L; in test [4] it was 1.44 mg/L; in test [5], 0.066 mg/L; in test [6], 0.091 mg/L. Further, the “% OX40 cell killed by macrophages (ADCP, 1 µg/ml)” value in test [2] came to 88%. Further, the “fold of agonism enhancement upon crosslinking (Daudi cells)” value in test [3] was 45 fold. Further, the “Binding to Raji cells mean signals at 10 µg/ml” value in test [4] was found to be 11900 mean fluorescence signal.

B2: OX40SF2IgG1 (antibody)
heavy: not shown
light: DIQMTQSPSSLSASVGDRVTITCKASQDVGAAVAWYQQKPGKAPKLLIYWASTRHTGVPSRFSGSGSGTDFTLTISSLQPEDFATYYCQQYINYPLTFGGGTKVEIKRTVAAPSVFIFPPSDEQLKSGTASVVCLLNNFYPREAKVQWKVDNALQSGNSQESVTEQDSKDSTYSLSSTLTLSKADYEKHKVYACEVTHQGLSSPVTKSFNRGEC
notes: Anti-OX40 antibody, wild-type IgG1; control without FN3 domain
For the molecule B2, in test [7], the binding result is “no binding”. In addition, the EC50 in test [5] is 3.3 mg/L.

B3: OX40SF2IgG2sigma (antibody)
heavy: QVQLVQSGAEVKKPGSSVKVSCKASGYTFKDYTMHWVRQAPGQGLEWIGGIYPNNGGSTYNQNFKDRVTLTADKSTSTAYMELSSLRSEDTAVYYCARMGYHGPHLDFDVWGQGTTVTVSSASTKGPSVFPLAPCSRSTSESTAALGCLVKDYFPEPVTVSWNSGALTSGVHTFPAVLQSSGLYSLSSVVTVPSSNFGTQTYTCNVDHKPSNTKVDKTVERKCCVECPPCPAPPAAASSVFLFPPKPKDTLMISRTPEVTCVVVDVSAEDPEVQFNWYVDGVEVHNAKTKPREEQFNSTFRVVSVLTVLHQDWLNGKEYKCKVSNKGLPSSIEKTISKTKGQPREPQVYTLPPSREEMTKNQVSLTCLVKGFYPSDIAVEWESNGQPENNYKTTPPMLDSDGSFFLYSKLTVDKSRWQQGNVFSCSVMHEALHNHYTQKSLSLSPGK
light: DIQMTQSPSSLSASVGDRVTITCKASQDVGAAVAWYQQKPGKAPKLLIYWASTRHTGVPSRFSGSGSGTDFTLTISSLQPEDFATYYCQQYINYPLTFGGGTKVEIKRTVAAPSVFIFPPSDEQLKSGTASVVCLLNNFYPREAKVQWKVDNALQSGNSQESVTEQDSKDSTYSLSSTLTLSKADYEKHKVYACEVTHQGLSSPVTKSFNRGEC
notes: Anti-OX40 antibody, IgG2 sigma isotype (effector silent Fc: V234A, G237A, P238S, H268A, V309L, A330S, P331S against wild type IgG2); control without FN3 domain; also called parental antibody; parental OX40 antibody
B3: the EC50 in test [1], in test [4] and in test [6] was over 10 mg/L each time. Also, the “% OX40 cell killed by macrophages (ADCP, 1 µg/ml)” value in test [2] amounted to 12%. In addition, the “fold of agonism enhancement upon crosslinking (Daudi cells)” value in test [3] came to 1 fold. In addition, in test [7], the binding result is on record as “no binding”. Also, the “Binding to Raji cells mean signals at 10 µg/ml” value in test [4] was 330 mean fluorescence signal.

For orientation: EC50 means the midpoint of the concentration-response curve. Low values mean higher potency in that assay, high ones lower potency in that assay.
